According to the supplement of paper PMC7125110:
± gives the standard error. This sample holds only a part of the variants without activity.

B1: glmS ribozyme (parent)
chain: AUAAAAGCGCCAGAACUACAGAAAUGUAGUUGACGAGGAGGAGGUUUAUCGAAUUUUCGGCGGAUGCCUCCAAA

Columns and labels:
Details in all cases: with glucosamine-6-phosphate
glucosamine-6-phosphate [1] = variants of: B1; assay: self-cleavage kobs at 640 uM GlcN6P; higher = faster cleavage; RNA array
Procedure, shortened: (§1)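 Over ~14 h at 37 °C, tiles were imaged as glucosamine-6-phosphate (40 μM to 10 mM) in HEPES/KCl/Mg(OAc)2 buffer flowed across sequenced MiSeq chips. The chips carried barcoded ribozyme variants transcribed in situ by E. coli RNA polymerase and tracked with a hybridised Cy3 probe. After normalisation to baseline and to non-cleaving reference variants, one- or two-exponential decay fits of per-tile medians gave kobs. kcat and KM followed from weighted Michaelis–Menten fits across concentrations.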

glucosamine-6-phosphate [2] = variants of: B1; assay: self-cleavage kobs at 2500 uM GlcN6P; higher = faster cleavage; RNA array
Procedure, shortened: as §1

glucosamine-6-phosphate [3] = variants of: B1; assay: self-cleavage kobs at 10000 uM GlcN6P; higher = faster cleavage; RNA array
Procedure, shortened: as §1

Row | Variant | self-cleavage kobs at 640 uM GlcN6P (glucosamine-6-phosphate [1]) | self-cleavage kobs at 2500 uM GlcN6P (glucosamine-6-phosphate [2]) | self-cleavage kobs at 10000 uM GlcN6P (glucosamine-6-phosphate [3])
1 | AUAAAAGCGGUAGAACUACAGAAAUGUAGUUGACGAGGAGGAGGGUUUUCGAAUUUUUGGCGGAUGCCUCCAAA [C10G C11U U45G A48U C58U] | < 1e-05 s⁻¹ | < 1e-05 s⁻¹ | 
2 | AUAAAAGCGCCAGAACUACAGAAAUGUAGUUGACGAGGAGGAGGCGUAUCGAAUUUACGGCGGAUGCCUCCAAA [U45C U46G U57A] | < 1e-05 s⁻¹ |  | 
3 | AUAAAAUCGCCAGAACUACAGAAAUGUAGUUCAUGAGGAGGAGGUUUAUCGAAUCUUCGGCGGAUGCCUCCAAA [G7U G32C C34U U55C] | < 1e-05 s⁻¹ | < 1e-05 s⁻¹ | 
4 | AUAAAAUCGCCAGAACUACAGAAAUGUAGUUGAUGAGGCGGAGGUUUAUCGAAUUUUCGGCGGAUGCCCCCAAA [G7U C34U A39C U69C] | < 1e-05 s⁻¹ |  | 
5 | AUAAAGGCGCCAGAACUACAGAAAUGUAGUUGACGAGGAGGAGGUUUAUCUAAUUAUCGGCGGAUGCCUCUAAA [A6G G51U U56A C71U] | < 1e-05 s⁻¹ |  | < 1e-05 s⁻¹
6 | AUAAAAGCGCCAGAACUACAGAAAUGUAGUUGACAAGGAGGACGUUUAUCGAUAUUUCGGCGGAUGCCUCCAAA [G35A G43C A53U U54A] | < 1e-05 s⁻¹ | < 1e-05 s⁻¹ | 
7 | AUAAAAGCGCCAGAACUACAGAAAUGUAGGUGACGAGGAGGAGGUUUAUCGAAUUUUCGGUGGAUGCCUCGAAA [U30G C61U C71G] | < 1e-05 s⁻¹ |  | 
8 | AUAAAAGCGCCAGAAAUACAGAAAUGUAGUUGACGAGGAGAAUGUUUAUCGAAUUUUCGGGGGAUGCUUCCAAA [C16A G41A G43U C61G C68U] | < 1e-05 s⁻¹ | < 1e-05 s⁻¹ | 
9 | AUAAAAGCGCCAGAACUACAGAAAUGUAUUUGACGAGGAGGAGGUCUAUCGAAUUUUCGGCCGAUGCCUCGAAA [G29U U46C G62C C71G] | < 1e-05 s⁻¹ | < 1e-05 s⁻¹ | 
10 | AUAAAUGCGCCAGAACUACAGAAAUGUAGUUGACGAGGAGGAGGUUUAUCGAAUGUUCCGCGGAUGCCCCCAAA [A6U U55G G59C U69C] | 0.000135 ± 5.3e-05 s⁻¹ | 5.57e-05 ± 2.7e-05 s⁻¹ | 
11 | AUAAAAGCGCCAGAACUACAGAAAUGUAGUUGACGAGGAGGAGAUUUAUCGAUUUUUCGGCGGAUGACUCCAAA [G44A A53U C67A] | 0.00108 ± 0.00027 s⁻¹ | 0.00591 ± 0.0013 s⁻¹ | 
12 | AUAAAAGCGCCAGAACUACAGAAAUGUAGAUGACGAGGAGGAGGUUUAUCGAAUUUUCGGCGGUUGCCUCCAAA [U30A A64U] | < 1e-05 s⁻¹ |  | 
13 | AUAAAAGCGCCAGAACUACAGAAAUGUAGUUGACUAGGGGGAGGUUUAUCGAAUUUUCUGCGGAUGCCUCCAAA [G35U A39G G59U] | < 1e-05 s⁻¹ |  | 
14 | AUAAAAGCGCCAGAAAUACAGAAAUGUAGUUGACGAGGAGGAGGUUUAUCGAAUGUUGGGCGGAGGCCUCCAAA [C16A U55G C58G U65G] | < 1e-05 s⁻¹ |  | 
15 | AUAAAAGCGCCAGUACUACAGAAAUGUAGUUGACGAGGAGGCGGUUUAUCUAAUUUUCGGCGGAUGCCUCCAAA [A14U A42C G51U] | < 1e-05 s⁻¹ |  | 
16 | AUAAAAUCGUCAGAAAUACAGAAAUGUAGGUGACGAGGAGGAGGUUUCUCGAAUUUUCGGCGGAUGCCUCCAAA [G7U C10U C16A U30G A48C] | < 1e-05 s⁻¹ |  | 
17 | AUAAAGGCGCCAGAACUACAGAAAUGUAGUUGACGUGGAGGGGUUUUAUCGAAUUUUCGCCGGAUGCCUCCAAA [A6G A36U A42G G44U G60C] | < 1e-05 s⁻¹ |  | 
18 | AUAAAAGCACCAGAACUACAGAAAUGUAGUUGACGAGGAGGAGGUCUAUCGAAUUUUCGGCGGAUGUCUCCAAA [G9A U46C C67U] | < 1e-05 s⁻¹ |  | 
19 | AUAAAAGCUCCAGAGCUACAGAAAUGUAGUUGACGAGGAGGAGGUUUAUCGAAUAUUCGGCGGAUGCCUCCAAA [G9U A15G U55A] | < 1e-05 s⁻¹ |  | 
20 | AUAAAAGCGCCAGAACUACAGAAAUGUAGUUGACAAGGAGGAGGUUUAUCAAAAUUUCGGCGUAUGCCUCCAAA [G35A G51A U54A G63U] | < 1e-05 s⁻¹ |  | 
21 | AUAAAAGCGCCCGAACUACAGAAAUGUAGUUGAGGAGGAUGAGGUUUAUCGAAUUUUCGGCGGAUGCCUCCAAA [A12C C34G G40U] | < 1e-05 s⁻¹ | < 1e-05 s⁻¹ | 
22 | AUAAAAGCGCCAGGACUACAGAAAUGUAGUUGACGAGGAGUAGGUUUAUCGAAUUUUCGGCGGAUGCCUCUAAA [A14G G41U C71U] | 0.000155 ± 4.4e-05 s⁻¹ | 0.00102 ± 0.00029 s⁻¹ | 
23 | AUAAAAGCGCCAGAACUACAGAAAUGUAGUUGACGAGGAGGAGGUUUAUGGGAUUUUCGUCGGAUGCCUCUAAA [C50G A52G G60U C71U] | 0.000392 ± 0.00013 s⁻¹ | 6.62e-05 ± 2.9e-05 s⁻¹ | 
24 | AUAAAAGCGCCAGAAGUACAGAAAUGUAGUUGACGAGGAGGAGGUUUAUCGAAUUAUCGGCGGAUGCCUCGAAA [C16G U56A C71G] | 7.67e-05 ± 1.7e-05 s⁻¹ |  | 
25 | AUAAAAGAGACAGAACUACAGAAAUGUAGAUGACGAGGAGGAGGUUUAUCGAAUUUUCGGGGGAUGCCUCCAAA [C8A C10A U30A C61G] | < 1e-05 s⁻¹ | < 1e-05 s⁻¹ | 
